Reference: FireProtDB (doi:10.1093/oxfordjournals.jbchem.a021544)

Conditions: Homo sapiens; pH 2.7; Thermal; DSC; glycine 0.05 M; reversible: yes; whole UniProt chain shown

B1: Lysozyme C wild type, P61626 (protein)
chain: MKALIVLGLVLLSVTVQGKVFERCELARTLKRLGMDGYRGISLANWMCLAKWESGYNTRATNYNAGDRSTDYGIFQINSRYWCNDGKTPGAVNACHLSCSALLQDNIADAVACAKRVVRDPQGIRAWVAWRNRCQNRDVRQYVQGCGV
Tm: 64.9 °C | heat capacity change of unfolding: 1.58 kcal/mol/K | unfolding enthalpy (calorimetric): 114 kcal/mol | unfolding enthalpy (van 't Hoff): 120 kcal/mol
